Starred links: 1 amine or outer side, 2 acyl side, 3 side chain; linkers in the order of their positions; H or OH if unused. Positions of bridges follow the written chain, without caps; N, C: chain ends. Non-standard residues stand in square brackets, D forms with d. Primed or numbered codes have the meaning given here. PyrS2″ = (S)-3-amino-1-((pent-4-en-1-yloxy)carbonyl)pyrrolidine-3-carboxylic acid (stapling residue), C=CCCCOC(=O)N1CC[C@@](N[*:1])(C(=O)[*:2])C1; B5(4) = 2,2-bis(4-pentenyl)glycine = 2-amino-2-(pent-4-en-1-yl)hept-6-enoic acid (stitching residue), C=CCCCC(CCCC=C)(N[*:1])C(=O)[*:2]; (EtSSPh)GluE = (S)-2-amino-5-oxo-5-(2-(phenyldisulfaneyl)ethoxy)pentanoic acid, O=C(CC[C@H](N[*:1])C(=O)[*:2])OCCSSc1ccccc1; (EtSSPh)AspE = (S)-2-amino-4-oxo-4-(2-(phenyldisulfaneyl)ethoxy)butanoic acid, O=C(C[C@H](N[*:1])C(=O)[*:2])OCCSSc1ccccc1; (EtSSHex)AspE = (S)-2-amino-4-(2-(hexyldisulfaneyl)ethoxy)-4-oxobutanoic acid, CCCCCCSSCCOC(=O)C[C@H](N[*:1])C(=O)[*:2]; B5(3) = 2,2-bis(4-pentenyl)glycine (stitching residue), C=CCCCC(CCCC=C)(N[*:1])C(=O)[*:2]; B5 = 2-amino-2-(pent-4-en-1-yl)hept-6-enoic acid, C=CCCCC(CCCC=C)(N[*:1])C(=O)[*:2]; Phe(3-COOH) = N[C@@H](Cc1cccc(C(=O)O)c1)C(=O)O; 2F3MeF = Cc1cccc(C[C@H](N[*:1])C(=O)[*:2])c1F; Phe(3-Cl) = N[C@@H](Cc1cccc(Cl)c1)C(=O)O; Phe(4-Cl) = N[C@@H](Cc1ccc(Cl)cc1)C(=O)O; Bta = N[C@@H](Cc1csc2ccccc12)C(=O)O; αAllylPro = C=CC[C@@]1(C(=O)O)CCCN1; tBuAla = CC(C)(C)C[C@H](N)C(=O)O; 2Thi = N[C@@H](Cc1cccs1)C(=O)O; 3Thi = N[C@@H](Cc1ccsc1)C(=O)O; S8 = C=CCCCCCC[C@](C)(N)C(=O)O; PyrS2(4) = not defined here Bounds are passed on as bounds.

The values below come from US20240116985A1 (published 2024).

The target in assay [1] is T1, full-length beta-Catenin (Uniprot ID P35222) (Homo sapiens (Human), UniProt P35222 1-781).
T1 construct: the AlphaScreen used a Histidine (Nickel Chelate) detection kit, so a His tag is likely but not described; also called B-Catenin; bCat
T1 sequence: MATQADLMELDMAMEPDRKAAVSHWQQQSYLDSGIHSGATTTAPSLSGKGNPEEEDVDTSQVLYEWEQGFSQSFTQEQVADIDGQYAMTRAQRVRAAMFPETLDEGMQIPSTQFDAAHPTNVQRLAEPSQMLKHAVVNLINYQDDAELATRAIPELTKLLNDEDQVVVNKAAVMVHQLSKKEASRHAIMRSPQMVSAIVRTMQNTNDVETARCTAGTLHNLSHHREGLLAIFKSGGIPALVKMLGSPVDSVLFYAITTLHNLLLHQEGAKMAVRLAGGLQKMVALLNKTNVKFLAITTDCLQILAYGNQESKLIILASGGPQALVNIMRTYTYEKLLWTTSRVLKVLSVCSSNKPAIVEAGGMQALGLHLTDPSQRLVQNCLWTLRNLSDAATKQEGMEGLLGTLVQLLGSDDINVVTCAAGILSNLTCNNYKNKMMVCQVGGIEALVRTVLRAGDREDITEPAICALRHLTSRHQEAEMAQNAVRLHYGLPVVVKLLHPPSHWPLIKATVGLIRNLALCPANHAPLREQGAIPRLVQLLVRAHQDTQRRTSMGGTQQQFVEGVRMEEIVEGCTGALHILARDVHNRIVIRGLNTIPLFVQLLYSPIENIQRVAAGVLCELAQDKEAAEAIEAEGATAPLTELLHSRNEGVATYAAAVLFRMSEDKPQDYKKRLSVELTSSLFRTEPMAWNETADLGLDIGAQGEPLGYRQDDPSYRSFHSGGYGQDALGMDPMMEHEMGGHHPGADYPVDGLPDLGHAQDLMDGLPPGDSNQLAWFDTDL
In words: AlphaScreen competition vs biotin-TCF4(10-53) on full-length beta-catenin. On the procedure:
Equal volume of the titrated peptide was added to the plate and incubated for 15 minutes at 20° C. Then 4 uL of donor and 4 uL acceptor beads at 10 ug/mL were added to the plate, for a 16 uL reaction pool and protected from light for 60 minutes at 20° C. prior to read. Reads were performed on a CLARIOstar plate reader (BMG Labtech) in duplicate, and data were fitted to a 1:1 binding model with hill slope using an in-house script. All provided concentrations are final concentrations.

The target in assay [2] is T2, B-cat-Halo (beta-catenin HaloTag NanoBRET construct expressed in HEK293 cells) (UniProt P35222 1-781).
T2 sequence (looked up): T1 sequence
Description: cell-based or functional assay.

Assay [3] deals with T1, full-length beta-Catenin (Uniprot ID …). In words: FP competition vs 5FAM-TCF4(10-53) probe on full-length beta-catenin. Here is the method:
The plate was incubated protected from light for 60 minutes at 20° C. prior to read. Reads were performed on a CLARIOstar plate reader (BMG Labtech) in duplicate, and data were fitted to a 1:1 binding model with hill slope using an in-house script. All provided concentrations are final concentrations.

The target of a further assay is T3, B-cat-Halo (UniProt P35222 1-781).
T3 sequence (looked up): T1 sequence
In words: cell-based or functional assay.

B1: I-312 (peptide)
peptide: XDAXDDAAFVXFWQ
modifications: not fully specified; N-terminal acetyl (Ac); C-terminal amide (NH2); PL3 at 1, B5 at 4, S8 at 11, 4ClF (printed 4C1F) at 12; stapled PL3-B5 and B5-S8
notes: Ac-PL3-Asp-Ala-B5-Asp-Asp-Ala-Ala-Phe-Val-S8-4C1F-Trp-Gln-NH2; stapled peptide composition
B1: in assay [1], the EC50 was at least 10 µM.

B2: I-310 (peptide)
peptide: XDAXDDAAFVXFWQ
modifications: not fully specified; N-terminal acetyl (Ac); C-terminal amide (NH2); PL3 at 1, B5 at 4, S8 at 11, 3ClF (printed 3C1F) at 12; stapled PL3-B5 and B5-S8
notes: Ac-PL3-Asp-Ala-B5-Asp-Asp-Ala-Ala-Phe-Val-S8-3C1F-Trp-Gln-NH2; stapled peptide composition
In assay [1], B2 showed an EC50 of 3.24 µM.
For Ac-[αAllylPro][(EtSSHex)AspE][tBuAla][B5(4)]DDAAFL[PyrS2″][3Thi][Bta]Q-NH2 (staple 1-4, 4-11; also: isomer composition, earlier eluting HPLC peak) [I-1959], the “NanoBRET Abs IC50” value in assay [2] was above 20 µM.

B3: I-319 (peptide)
peptide: XDAXDDAAFVXFWQ
modifications: not fully specified; N-terminal acetyl (Ac); C-terminal amide (NH2); PL3 at 1, B5 at 4, S8 at 11, 2FF at 12; stapled PL3-B5 and B5-S8
notes: Ac-PL3-Asp-Ala-B5-Asp-Asp-Ala-Ala-Phe-Val-S8-2FF-Trp-Gln-NH2; stapled peptide composition
B3: the EC50 in assay [1] worked out at 0.054 µM.

B4: I-309 (peptide)
peptide: Ac-[αAllylPro]DA[B5]DDAA[Phe(4-Cl)]V[S8]FWQ-NH2
modifications: staple 1-4, 4-11; not fully specified; printed as Ac-PL3-Asp-Ala-B5-Asp-Asp-Ala-Ala-4C1F-Val-S8-Phe-Trp-Gln-NH2
notes: Ac-PL3-Asp-Ala-B5-Asp-Asp-Ala-Ala-4C1F-Val-S8-Phe-Trp-Gln-NH2; stapled peptide composition
Take B4: the EC50 in assay [1] amounted to 0.181 µM; in assay [3], 3.12 µM.
As to Ac-[αAllylPro]D[tBuAla][B5(3)]D[Phe(3-COOH)]QAFL[PyrS2″][2F3MeF][Phe(3-Cl)]A-NH2 (staple 1-4, 4-11) [I-2227], the “NanoBRET Abs IC50” value with B-cat-Halo turned out to be 6.3 µM.
Turning to Ac-[αAllylPro]D[tBuAla][B5(4)]D[(EtSSPh)GluE]AAFL[PyrS2″][3Thi][Bta]Q-NH2 (staple 1-4, 4-11; also: isomer composition, later eluting HPLC peak) [I-1958], the “NanoBRET Abs IC50” value in assay [2] was above 20 µM.
Take Ac-[αAllylPro]D[tBuAla][B5(3)]D[Phe(3-COOH)]QAFL[PyrS2″][2F3MeF][Phe(4-Cl)]A-NH2 (staple 1-4, 4-11) [I-2223]: the “NanoBRET Abs IC50” value with B-cat-Halo amounted to 9 µM.

B5: I-325 (peptide)
peptide: Ac-[αAllylPro]DA[B5(4)]DDAA[2Thi]V[S8]FWQ-NH2
modifications: staple 1-4, 4-11
notes: Ac-PL3-Asp-Ala-B5-Asp-Asp-Ala-Ala-2Thi-Val-S8-Phe-Trp-Gln-NH2; stapled peptide composition
As for B5, the EC50 in assay [1] worked out at 0.053 µM; in assay [3], 1.31 µM.
Ac-[αAllylPro]D[tBuAla][B5(3)]D[Phe(3-COOH)]QAFV[PyrS2(4)][3Thi][Phe(3-Cl)]A-NH2 (staple 1-4, 4-11; reading uncertain) [I-2225]: in the assay with B-cat-Halo, the “NanoBRET Abs IC50” value was determined as 7.8 µM.

B6: I-314 (peptide)
peptide: XHAXDEAAFVXFWQ
modifications: not fully specified; N-terminal acetyl (Ac); C-terminal amide (NH2); PL3 at 1, B5 at 4, S8 at 11; stapled PL3-B5 and B5-S8
notes: Ac-PL3-His-Ala-B5-Asp-Glu-Ala-Ala-Phe-Val-S8-Phe-Trp-Gln-NH2; stapled peptide composition
Consider B6, for which the EC50 in assay [1] is at least 10 µM.

B7: I-311 (peptide)
peptide: XDAXDDAAFVXFWQ
modifications: not fully specified; N-terminal acetyl (Ac); C-terminal amide (NH2); PL3 at 1, B5 at 4, S8 at 11, 3ClF (printed 3C1F) at 12; stapled PL3-B5 and B5-S8
notes: as for B2
In the case of B7, the EC50 in assay [1] amounted to 1.24 µM.

B8: I-313 (peptide)
peptide: XDAXDDAAFVXFWQ
modifications: not fully specified; N-terminal acetyl (Ac); C-terminal amide (NH2); PL3 at 1, B5 at 4, S8 at 11, 4ClF (printed 4C1F) at 12; stapled PL3-B5 and B5-S8
notes: as for B1
For B8, a half-maximal effect in assay [1] (EC50) was put at 3.6 µM.
For Ac-[αAllylPro]D[tBuAla][B5(4)][(EtSSHex)AspE]DAAFL[PyrS2″][3Thi][Bta]Q-NH2 (staple 1-4, 4-11) [I-1961], in assay [2], the “NanoBRET Abs IC50” value was above 20 µM.
In the case of Ac-[αAllylPro]D[tBuAla][B5(4)][(EtSSPh)AspE]DAAFL[PyrS2″][3Thi][Bta]Q-NH2 (staple 1-4, 4-11; also: isomer composition, earlier eluting HPLC peak) [I-1954], the “NanoBRET Abs IC50” value in assay [2] is above 20 µM.
